In US20050048622A1 (Genentech, published 2005):

B1: RSE.Fc (Fc fusion, UniProt Q06418 41-428, looked up)
chain: AGLKLMGAPVKLTVSQGQPVKLNCSVEGMEEPDIQWVKDGAVVQNLDQLYIPVSEQHWIGFLSLKSVERSDAGRYWCQVEDGGETEISQPVWLTVEGVPFFTVEPKDLAVPPNAPFQLSCEAVGPPEPVTIVWWRGTTKIGGPAPSPSVLNVTGVTQSTMFSCEAHNLKGLASSRTATVHLQALPAAPFNITVTKLSSSNASVAWMPGADGRALLQSCTVQVTQAPGGWEVLAVVVPVPPFTCLLRDLVPATNYSLRVRCANALGPSPYADWVPFQTKGLAPASAPQNLHAIRTDSGLILEWEEVIPEAPLEGPLGPYKLSWVQDNGTQDELTVEGTRANLTGWDPQKDLIVRVCVSNAVGCGPWSQPLVVSSHDRAGQQGPPHSRTS
notes: Control; also called control fusion protein; control receptor RSE.Fc; not shown: Fc part

Legend:
ErbB4.Fc = ErbB4.Fc (UniProt Q15303); assay: displacement of ^125I-NRG3^EGF.Fc from immobilized ErbB4.Fc, 96-well plate
ErbB4.Fc, sequence (Q15303 26-651 limits assumed): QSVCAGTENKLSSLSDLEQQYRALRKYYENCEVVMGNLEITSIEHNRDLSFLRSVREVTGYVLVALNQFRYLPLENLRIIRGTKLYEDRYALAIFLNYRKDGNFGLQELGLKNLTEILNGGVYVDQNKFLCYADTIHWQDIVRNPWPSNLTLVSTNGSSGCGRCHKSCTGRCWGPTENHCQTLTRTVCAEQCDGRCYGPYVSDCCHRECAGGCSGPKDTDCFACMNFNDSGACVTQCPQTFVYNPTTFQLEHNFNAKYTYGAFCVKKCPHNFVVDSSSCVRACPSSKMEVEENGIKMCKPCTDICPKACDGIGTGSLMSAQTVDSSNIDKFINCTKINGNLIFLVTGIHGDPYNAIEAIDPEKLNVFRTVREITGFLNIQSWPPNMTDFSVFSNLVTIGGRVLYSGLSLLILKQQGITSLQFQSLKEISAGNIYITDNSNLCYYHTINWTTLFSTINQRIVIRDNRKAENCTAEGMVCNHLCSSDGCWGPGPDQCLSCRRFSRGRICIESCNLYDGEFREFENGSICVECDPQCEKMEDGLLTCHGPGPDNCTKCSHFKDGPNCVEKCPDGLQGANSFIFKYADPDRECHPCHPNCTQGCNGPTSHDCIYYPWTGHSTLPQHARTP

human ErbB2 receptor = target: T1, human ErbB2 receptor (human, UniProt P04626 23-1255); assay: FACS on K562^erbB2 cells
T1 construct: whole, on cells; also called HER2; K562^erbB2 cells

human ErbB3 receptor = target: T2, human ErbB3 receptor (human, UniProt P21860 20-1342); assay: FACS on K562^erbB3 cells
T2 construct: whole, on cells; also called HER3; K562^erbB3 cells
T2 sequence (P21860 20-1342): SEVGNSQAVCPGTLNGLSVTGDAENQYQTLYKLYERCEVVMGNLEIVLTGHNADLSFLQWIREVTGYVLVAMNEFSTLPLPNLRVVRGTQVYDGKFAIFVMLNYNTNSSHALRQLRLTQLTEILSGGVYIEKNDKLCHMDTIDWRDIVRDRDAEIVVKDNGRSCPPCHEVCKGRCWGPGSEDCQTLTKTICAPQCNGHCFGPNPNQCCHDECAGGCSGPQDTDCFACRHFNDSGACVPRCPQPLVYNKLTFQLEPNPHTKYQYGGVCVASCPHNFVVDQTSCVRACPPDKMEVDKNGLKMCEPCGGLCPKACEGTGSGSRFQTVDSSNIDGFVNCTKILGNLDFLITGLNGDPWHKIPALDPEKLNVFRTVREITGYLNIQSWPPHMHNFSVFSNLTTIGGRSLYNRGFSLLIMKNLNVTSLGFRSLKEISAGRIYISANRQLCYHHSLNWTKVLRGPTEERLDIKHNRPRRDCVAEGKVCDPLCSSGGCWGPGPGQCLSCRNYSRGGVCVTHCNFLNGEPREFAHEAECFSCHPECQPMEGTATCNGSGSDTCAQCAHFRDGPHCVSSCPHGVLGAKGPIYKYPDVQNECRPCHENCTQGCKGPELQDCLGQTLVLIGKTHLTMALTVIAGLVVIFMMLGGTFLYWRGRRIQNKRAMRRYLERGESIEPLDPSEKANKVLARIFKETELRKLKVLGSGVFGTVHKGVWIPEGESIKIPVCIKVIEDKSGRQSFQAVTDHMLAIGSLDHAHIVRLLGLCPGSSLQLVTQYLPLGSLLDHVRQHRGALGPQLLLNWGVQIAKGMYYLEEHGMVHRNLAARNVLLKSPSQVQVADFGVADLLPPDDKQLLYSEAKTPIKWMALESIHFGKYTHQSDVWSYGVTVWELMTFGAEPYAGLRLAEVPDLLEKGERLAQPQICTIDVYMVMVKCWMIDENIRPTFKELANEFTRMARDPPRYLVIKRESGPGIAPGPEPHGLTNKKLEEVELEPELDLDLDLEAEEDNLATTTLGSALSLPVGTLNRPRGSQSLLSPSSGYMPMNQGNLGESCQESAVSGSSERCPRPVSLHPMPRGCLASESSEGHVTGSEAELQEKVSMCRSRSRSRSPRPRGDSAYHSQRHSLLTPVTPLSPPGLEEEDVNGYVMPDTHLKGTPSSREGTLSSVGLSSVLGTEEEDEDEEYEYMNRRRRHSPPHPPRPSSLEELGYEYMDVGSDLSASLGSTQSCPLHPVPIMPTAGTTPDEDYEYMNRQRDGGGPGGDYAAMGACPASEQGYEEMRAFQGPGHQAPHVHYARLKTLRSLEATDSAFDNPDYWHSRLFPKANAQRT

human ErbB4 receptor = target: T3, human ErbB4 receptor (human, UniProt Q15303 26-1308); assay: FACS on K562^erbB4 cells
T3 construct: whole, on cells; also called HER4; K562^erbB4 cells
T3 sequence (Q15303 26-1308): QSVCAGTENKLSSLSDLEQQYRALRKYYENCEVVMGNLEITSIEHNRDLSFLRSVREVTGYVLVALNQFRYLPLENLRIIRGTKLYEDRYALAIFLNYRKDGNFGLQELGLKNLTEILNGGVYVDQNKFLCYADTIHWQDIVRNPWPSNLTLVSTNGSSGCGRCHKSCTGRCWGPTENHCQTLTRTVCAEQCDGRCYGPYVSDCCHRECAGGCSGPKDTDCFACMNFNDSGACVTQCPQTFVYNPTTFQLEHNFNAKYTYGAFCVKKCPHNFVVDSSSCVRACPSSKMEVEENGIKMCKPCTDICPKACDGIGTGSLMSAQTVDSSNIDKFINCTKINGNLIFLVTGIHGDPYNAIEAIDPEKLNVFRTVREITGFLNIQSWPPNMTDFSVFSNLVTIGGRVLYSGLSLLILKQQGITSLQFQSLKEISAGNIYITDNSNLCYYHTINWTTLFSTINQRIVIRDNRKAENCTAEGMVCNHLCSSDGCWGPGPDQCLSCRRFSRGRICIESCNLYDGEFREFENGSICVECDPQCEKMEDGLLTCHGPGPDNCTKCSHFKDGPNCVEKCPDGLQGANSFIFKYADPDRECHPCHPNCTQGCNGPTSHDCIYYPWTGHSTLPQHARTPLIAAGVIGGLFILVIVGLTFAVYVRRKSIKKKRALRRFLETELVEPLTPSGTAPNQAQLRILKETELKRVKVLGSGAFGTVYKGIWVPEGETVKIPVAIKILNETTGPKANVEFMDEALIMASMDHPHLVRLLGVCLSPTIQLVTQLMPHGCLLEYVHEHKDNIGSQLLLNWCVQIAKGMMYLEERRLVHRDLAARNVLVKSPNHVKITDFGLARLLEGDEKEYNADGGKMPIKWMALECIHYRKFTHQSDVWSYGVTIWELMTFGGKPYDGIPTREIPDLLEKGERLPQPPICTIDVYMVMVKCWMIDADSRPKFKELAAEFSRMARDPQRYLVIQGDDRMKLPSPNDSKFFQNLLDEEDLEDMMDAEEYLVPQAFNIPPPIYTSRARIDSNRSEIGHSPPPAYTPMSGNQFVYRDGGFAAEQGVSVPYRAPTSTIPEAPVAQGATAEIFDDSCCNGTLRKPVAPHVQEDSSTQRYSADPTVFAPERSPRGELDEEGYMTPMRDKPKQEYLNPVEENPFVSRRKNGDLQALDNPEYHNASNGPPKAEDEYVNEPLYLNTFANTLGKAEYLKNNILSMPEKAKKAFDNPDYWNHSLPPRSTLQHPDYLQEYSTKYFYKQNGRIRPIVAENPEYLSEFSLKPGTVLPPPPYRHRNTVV

Molecule	Ki (ErbB4.Fc)	binding result (human ErbB2 receptor)	binding result (human ErbB3 receptor)	binding result (human ErbB4 receptor)
NRG1^EGF (rHRGβ1 177-244) (from UniProt Q02297 177-244) (ligand)	1 nM			
B1		no binding	no binding	no binding
